Reference: patent US20230391893A1 (published 2023)

Molecular target: dICB-huHF
Assay: flow cytometry; LLC1 cells

- Kd: 32.3 nM
B1: LLC1 (receptor)
chain: TIDTKRNISAEEGGSVILQCHFSSDTAEVTQVDWKQQDQLLAIYSVDLGWHVASVFSDRVVPGPSLGLTFQSLTMNDTGEYFCTYHTYPGGIYKGRIFLKVQESSDDRNGLAQFQTAPLG
